Assay results from patent US20250361274A1, “PEPTIDE AND PEPTIDE-CONTAINING AGENT” (PEPTIDREAM INC., priority 2022, published 2025).
Numbered stars: 1 amine (or outer) side, 2 acyl side, 3 side chain; on linkers, the order of the positions; unused ones are H or OH. Bridge positions count the residues as written; N and C are the ends. Square brackets hold non-standard residues; d marks the D form. Ends that are not written are not given here. KCOpipzaa = N6-(4-(carboxymethyl)piperazine-1-carbonyl)-L-lysine, O=C(NCCCC[C@H](N[*:1])C(=O)[*:2])N1CCN(CC(=O)[*:3])CC1; F42Py = (S)-2-amino-3-[4-(pyridin-2-yl)phenyl]propanoic acid, O=C([C@H](Cc1ccc(-c2ccccn2)cc1)N[*:1])[*:2]; 3Pal(6-Ph) = N[C@@H](Cc1ccc(-c2ccccc2)nc1)C(=O)O; Phe(4-COOH) = N[C@@H](Cc1ccc(C(=O)O)cc1)C(=O)O; Bip = N[C@@H](Cc1ccc(-c2ccccc2)cc1)C(=O)O; Phe(4-F) = N[C@@H](Cc1ccc(F)cc1)C(=O)O; NMeF = CN[C@@H](Cc1ccccc1)C(=O)O; hCit = NC(=O)NCCCC[C@H](N)C(=O)O; 4Pal = N[C@@H](Cc1ccncc1)C(=O)O; Tic = O=C(O)[C@@H]1Cc2ccccc2CN1; Aad = N[C@@H](CCCC(=O)O)C(=O)O; Cha = N[C@@H](CC1CCCCC1)C(=O)O; Abu = CC[C@H](N)C(=O)O; βAla = NCCC(=O)O

What was measured:
[1] = molecular target: T1, BMP4 (Homo sapiens, UniProt P12644); experiment: BMP4 signal transduction inhibitory activity: SMAD1 phosphorylation by BMP4 stimulus, AlphaLISA SureFire, A549 cells; format: cell-based; details: for aLISA BMP4: A549 cells; for aLISA BMP4 (0.2 nM) % inh: peptide conc. in assay 0.2, 2, 20 nM
T1 sequence (P12644 293-408): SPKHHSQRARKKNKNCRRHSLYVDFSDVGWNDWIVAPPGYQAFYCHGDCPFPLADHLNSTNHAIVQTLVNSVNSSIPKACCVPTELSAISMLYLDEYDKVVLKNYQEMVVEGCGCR

[2] = molecular target: T2, BMP7 (Homo sapiens, UniProt P18075); experiment: BMP7 signal transduction inhibitory activity: SMAD1 phosphorylation by BMP7 stimulus, A549 cells; format: cell-based; details: for aLISA BMP7: A549 cells; for aLISA BMP7 (10 nM) % inh: peptide conc. in assay 1, 10, 100 nM
T2 sequence (P18075 293-431): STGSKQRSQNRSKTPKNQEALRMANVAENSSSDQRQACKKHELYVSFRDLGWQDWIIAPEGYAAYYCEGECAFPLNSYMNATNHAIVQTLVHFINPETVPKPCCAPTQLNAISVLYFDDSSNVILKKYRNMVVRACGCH
Summary of the method: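 Inhibition was measured as loss of BMP7-induced SMAD1 phosphorylation, using 10 nM BMP7 on A549 cells. Most peptides were given as three-concentration sets, such as 1/10/100, 10/100/1,000, 100/300/1,000 or 10/30/90 nM. Others were given as eight 1/3-ratio dilutions from 100 or 1,000 nM, alongside Noggin as control.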

[3] = SMAD1 phosphorylation, BMP4 0.2 nM
[4] = SMAD1 phosphorylation, BMP7 10 nM

41 ({CH2CO}-A[Tic]VYVDK[Bip]PYP[Bip]Y[Phe(4-COOH)][Phe(4-COOH)]SCG-NH2; thioether N-17) [compound 41]
aLISA BMP4 ([1]; inhibition of SMAD1 phosphorylation by BMP4 stimulus, AlphaLISA, class by peptide concentration zone): C (showed an inhibitory activity of less than 50% in 0.2 nM-addition zone and showed an inhibitory activity of 50% or more in 2 nM-addition zone were defined as B or C) | aLISA BMP7 ([2]; inhibition of SMAD1 phosphorylation by BMP7 stimulus, AlphaLISA, class by peptide concentration zone): ND (the inhibitory activity was less than 30% at the maximum concentration evaluated)

135 ({CH2CO}-ERVYVD[hCit][Bip]PYV[Bip]Y[Phe(4-COOH)][Phe(4-COOH)]SCG-NH2; thioether N-17; not fully specified) [compound 135]
aLISA BMP4 ([1]; inhibition of SMAD1 phosphorylation by BMP4 stimulus, peptides of Synthesis 1, classes D-F, ND): E (showed less than 50% of inhibitory activity in 0.2 nM-addition zone and showed 50% or more of inhibitory activity in 2 nM-addition zone) | aLISA BMP7 ([2]; inhibition of SMAD1 phosphorylation by BMP7 stimulus, peptides of Synthesis 1, classes E, F, ND): E (showed 50% or more of inhibitory activity in a zone to which the peptide was added in an amount of 10 nM)

281 (ERV[Phe(4-COOH)]VDR[3Pal(6-Ph)][KCOpipzaa]YV[Bip][4Pal][Phe(4-COOH)][Phe(4-COOH)]SC[βAla]) [compound 281]
aLIZA BMP4 (0.2 nM) % inh ([1]; BMP4 0.2 nM stimulus, peptide conc. in assay 0.02, 0.2, 2 nM, class symbols): C (showed less than 30% of inhibitory activity in 0.2 nM-addition zone and showed 30% or more of inhibitory activity in 2 nM-addition zone) | aLIZA BMP7 (10 nM) % inh ([2]; BMP7 10 nM stimulus, peptide conc. in assay 100, 300, 1000 nM, class symbols): ND (the inhibitory activity was less than 30% at the maximum concentration evaluated)

120 ({CH2CO}-E[KCOpipzaa]VYV[KCOpipzaa]R[3Pal(6-Ph)]SYP[Bip]Y[Phe(4-COOH)][Phe(4-COOH)]SCG-NH2; thioether N-17; not fully specified) [compound 120]
aLISA BMP4 ([1]; inhibition of SMAD1 phosphorylation by BMP4 stimulus, peptides of Synthesis 2, classes A-C, ND): A (showed an inhibitory activity of 50% or more in a zone to which the peptide was added to in an amount of 0.2 nM) | aLISA BMP7 ([2]; inhibition of SMAD1 phosphorylation by BMP7 stimulus, peptides of Synthesis 2, classes A-D, ND): ND (the inhibitory activity was less than 30% at the maximum concentration evaluated)

402 (FG[NMeF]G[Bip]GDE[Cha][Aad][NMeF]L[Abu]CG-NH2; not fully specified) [compound 402]
aLISA BMP4 (0.2 nM) % inh ([1]; BMP4 0.2 nM stimulus): ND (the inhibitory activity was less than 30% at the maximum concentration evaluated) | aLISA BMP7 (10 nM) % inh ([2]; BMP7 10 nM stimulus): C (showed less than 30% of inhibitory activity in a zone to which the peptide was added in an amount of 1 nM and showed 30% or more of inhibitory activity in 10 nM-addition zone)

256 (ERV[Phe(4-F)]VSR[3Pal(6-Ph)]SYV[Bip][4Pal][Phe(4-COOH)][Phe(4-COOH)]SCG-NH2; not fully specified) [compound 256]
aLIZA BMP4 (0.2 nM) % Inh ([1]; SMAD1 phosphorylation by BMP4 stimulus, peptide conc. in assay 0.02, 0.2, 2 nM, class symbols): C (showed less than 30% of inhibitory activity in 0.2 nM-addition zone and showed 30% or more of inhibitory activity in 2 nM-addition zone) | aLIZA BMP7 (10 nM) % Inh ([2]; SMAD1 phosphorylation by BMP7 stimulus, peptide conc. in assay 10, 100, 1000 nM, class symbols): ND (the inhibitory activity was less than 30% at the maximum concentration evaluated)

331 (FG[NMeF][dS][Bip]GDD[Cha]A[NMeF]LHCG-NH2; not fully specified (N-terminus, bridges)) [compound 331]
aLISA BMP4 (0.2 nM) % inh [1, 3]: ND (the inhibitory activity was less than 30% at the maximum concentration evaluated) | aLISA BMP7 (10 nM) % inh [2, 4]: D (showed less than 30% of inhibitory activity in 10 nM-addition zone and showed 30% or more of inhibitory activity in 100 nM-addition zone)

34 ({CH2CO}-AKVYVDH[Bip]PYP[Bip]Y[Phe(4-COOH)][Phe(4-COOH)]SCG-NH2; thioether N-17; not fully specified) [compound 34]
aLISA BMP4 ([1]; SMAD1 phosphorylation, peptides of Synthesis 2, peptide 0.02, 0.2, 2 nM): A (showed an inhibitory activity of 50% or more in a zone to which the peptide was added to in an amount of 0.2 nM) | aLISA BMP7 ([2]; 10 nM BMP7, peptides of Synthesis 2, peptide 1, 10, 100 nM): C (showed less than 50% of inhibitory activity in 10 nM-addition zone and showed 50% or more of inhibitory activity in 100 nM-addition zone)

327 (FG[NMeF]G[F42Py]GDD[Cha]A[NMeF]LHCG-NH2; not fully specified) [compound 327]
aLISA BMP4 (0.2 nM) % inh [1, 3]: A (showed less than 30% of inhibitory activity in 2 nM-peptide-addition zone and showed 30% or more of inhibitory activity in 20 nM-addition zone) | aLISA BMP7 (10 nM) % inh [2, 4]: D (showed less than 30% of inhibitory activity in 10 nM-addition zone and showed 30% or more of inhibitory activity in 100 nM-addition zone)
